For 6 molecules, Ki results are on record in US20260015399A1 (Boehringer Ingelheim, published 2026).

One may read the Ki as a dissociation constant, usually derived from enzyme kinetics or from competition with a known ligand. Low values mean higher affinity, high ones lower affinity.

*1 amine or outer side, *2 acyl side, *3 side chain or, on linkers, in order; H or OH if unused. Side-chain parts run from the residue outwards. The star is where a group is joined. C18 diacid = O=C(O)CCCCCCCCCCCCCCCCC(=O)*; γGlu = O=C(O)[C@H](CCC(=O)[*:2])N[*:1]; Isovaleryl = CC(C)CC(=O)*; Ahx = NCCCCCC(=O)O

The chains are these.
T1: human NPY2 receptor (human, UniProt P49146 1-381)
T1 construct: whole, on cells; also called hNPY2-R; hNPY2R
T1 sequence (looked up): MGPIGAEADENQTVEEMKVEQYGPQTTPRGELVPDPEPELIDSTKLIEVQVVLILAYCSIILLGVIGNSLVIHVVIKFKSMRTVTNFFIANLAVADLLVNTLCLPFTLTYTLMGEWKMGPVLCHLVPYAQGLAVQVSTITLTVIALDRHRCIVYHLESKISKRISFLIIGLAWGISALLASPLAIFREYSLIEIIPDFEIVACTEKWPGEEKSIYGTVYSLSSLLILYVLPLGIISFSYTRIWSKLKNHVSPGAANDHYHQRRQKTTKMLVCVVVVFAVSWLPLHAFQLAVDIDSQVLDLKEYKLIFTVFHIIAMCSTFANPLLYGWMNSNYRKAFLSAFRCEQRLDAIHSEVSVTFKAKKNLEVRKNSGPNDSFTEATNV

B1: Compound 153 (peptide)
peptide: Isovaleryl-APEK([Ahx-γGlu-C18 diacid])PEELATPEELQRYYVSLRHYYNWLTRQRY-NH2
SMILES: CC(C)CC(=O)N[C@@H](C)C(=O)N1CCC[C@H]1C(=O)N[C@@H](CCC(=O)O)C(=O)N[C@@H](CCCCNC(=O)CCCCCNC(=O)CC[C@H](NC(=O)CCCCCCCCCCCCCCCCC(=O)O)C(=O)O)C(=O)N1CCC[C@H]1C(=O)N[C@@H](CCC(=O)O)C(=O)N[C@@H](CCC(=O)O)C(=O)N[C@@H](CC(C)C)C(=O)N[C@@H](C)C(=O)N[C@H](C(=O)N1CCC[C@H]1C(=O)N[C@@H](CCC(=O)O)C(=O)N[C@@H](CCC(=O)O)C(=O)N[C@@H](CC(C)C)C(=O)N[C@@H](CCC(N)=O)C(=O)N[C@@H](CCCNC(=N)N)C(=O)N[C@@H](Cc1ccc(O)cc1)C(=O)N[C@@H](Cc1ccc(O)cc1)C(=O)N[C@H](C(=O)N[C@@H](CO)C(=O)N[C@@H](CC(C)C)C(=O)N[C@@H](CCCNC(=N)N)C(=O)N[C@@H](Cc1c[nH]cn1)C(=O)N[C@@H](Cc1ccc(O)cc1)C(=O)N[C@@H](Cc1ccc(O)cc1)C(=O)N[C@@H](CC(N)=O)C(=O)N[C@@H](Cc1c[nH]c2ccccc12)C(=O)N[C@@H](CC(C)C)C(=O)N[C@H](C(=O)N[C@@H](CCCNC(=N)N)C(=O)N[C@@H](CCC(N)=O)C(=O)N[C@@H](CCCNC(=N)N)C(=O)N[C@@H](Cc1ccc(O)cc1)C(N)=O)[C@@H](C)O)C(C)C)[C@@H](C)O
B2: Compound 154 (peptide)
peptide: Isovaleryl-APEK([Ahx-γGlu-C18 diacid])PEEAATPEEIQRYYVALRHYYNWLTRQRY-NH2
SMILES: CC[C@H](C)[C@H](NC(=O)[C@H](CCC(=O)O)NC(=O)[C@H](CCC(=O)O)NC(=O)[C@@H]1CCCN1C(=O)[C@@H](NC(=O)[C@H](C)NC(=O)[C@H](C)NC(=O)[C@H](CCC(=O)O)NC(=O)[C@H](CCC(=O)O)NC(=O)[C@@H]1CCCN1C(=O)[C@H](CCCCNC(=O)CCCCCNC(=O)CC[C@H](NC(=O)CCCCCCCCCCCCCCCCC(=O)O)C(=O)O)NC(=O)[C@H](CCC(=O)O)NC(=O)[C@@H]1CCCN1C(=O)[C@H](C)NC(=O)CC(C)C)[C@@H](C)O)C(=O)N[C@@H](CCC(N)=O)C(=O)N[C@@H](CCCNC(=N)N)C(=O)N[C@@H](Cc1ccc(O)cc1)C(=O)N[C@@H](Cc1ccc(O)cc1)C(=O)N[C@H](C(=O)N[C@@H](C)C(=O)N[C@@H](CC(C)C)C(=O)N[C@@H](CCCNC(=N)N)C(=O)N[C@@H](Cc1c[nH]cn1)C(=O)N[C@@H](Cc1ccc(O)cc1)C(=O)N[C@@H](Cc1ccc(O)cc1)C(=O)N[C@@H](CC(N)=O)C(=O)N[C@@H](Cc1c[nH]c2ccccc12)C(=O)N[C@@H](CC(C)C)C(=O)N[C@H](C(=O)N[C@@H](CCCNC(=N)N)C(=O)N[C@@H](CCC(N)=O)C(=O)N[C@@H](CCCNC(=N)N)C(=O)N[C@@H](Cc1ccc(O)cc1)C(N)=O)[C@@H](C)O)C(C)C
B3: Compound 156 (peptide)
peptide: Isovaleryl-APEK([Ahx-γGlu-C18 diacid])PEEAAEPEEIQRYYVALRHYYNWLTRQRY-NH2
SMILES: CC[C@H](C)[C@H](NC(=O)[C@H](CCC(=O)O)NC(=O)[C@H](CCC(=O)O)NC(=O)[C@@H]1CCCN1C(=O)[C@H](CCC(=O)O)NC(=O)[C@H](C)NC(=O)[C@H](C)NC(=O)[C@H](CCC(=O)O)NC(=O)[C@H](CCC(=O)O)NC(=O)[C@@H]1CCCN1C(=O)[C@H](CCCCNC(=O)CCCCCNC(=O)CC[C@H](NC(=O)CCCCCCCCCCCCCCCCC(=O)O)C(=O)O)NC(=O)[C@H](CCC(=O)O)NC(=O)[C@@H]1CCCN1C(=O)[C@H](C)NC(=O)CC(C)C)C(=O)N[C@@H](CCC(N)=O)C(=O)N[C@@H](CCCNC(=N)N)C(=O)N[C@@H](Cc1ccc(O)cc1)C(=O)N[C@@H](Cc1ccc(O)cc1)C(=O)N[C@H](C(=O)N[C@@H](C)C(=O)N[C@@H](CC(C)C)C(=O)N[C@@H](CCCNC(=N)N)C(=O)N[C@@H](Cc1c[nH]cn1)C(=O)N[C@@H](Cc1ccc(O)cc1)C(=O)N[C@@H](Cc1ccc(O)cc1)C(=O)N[C@@H](CC(N)=O)C(=O)N[C@@H](Cc1c[nH]c2ccccc12)C(=O)N[C@@H](CC(C)C)C(=O)N[C@H](C(=O)N[C@@H](CCCNC(=N)N)C(=O)N[C@@H](CCC(N)=O)C(=O)N[C@@H](CCCNC(=N)N)C(=O)N[C@@H](Cc1ccc(O)cc1)C(N)=O)[C@@H](C)O)C(C)C
B4: Compound 158 (peptide)
peptide: Isovaleryl-APEK([Ahx-γGlu-C18 diacid])PPEAASPEEIQRYYVALRHYYNWLTRQRY-NH2
SMILES: CC[C@H](C)[C@H](NC(=O)[C@H](CCC(=O)O)NC(=O)[C@H](CCC(=O)O)NC(=O)[C@@H]1CCCN1C(=O)[C@H](CO)NC(=O)[C@H](C)NC(=O)[C@H](C)NC(=O)[C@H](CCC(=O)O)NC(=O)[C@@H]1CCCN1C(=O)[C@@H]1CCCN1C(=O)[C@H](CCCCNC(=O)CCCCCNC(=O)CC[C@H](NC(=O)CCCCCCCCCCCCCCCCC(=O)O)C(=O)O)NC(=O)[C@H](CCC(=O)O)NC(=O)[C@@H]1CCCN1C(=O)[C@H](C)NC(=O)CC(C)C)C(=O)N[C@@H](CCC(N)=O)C(=O)N[C@@H](CCCNC(=N)N)C(=O)N[C@@H](Cc1ccc(O)cc1)C(=O)N[C@@H](Cc1ccc(O)cc1)C(=O)N[C@H](C(=O)N[C@@H](C)C(=O)N[C@@H](CC(C)C)C(=O)N[C@@H](CCCNC(=N)N)C(=O)N[C@@H](Cc1c[nH]cn1)C(=O)N[C@@H](Cc1ccc(O)cc1)C(=O)N[C@@H](Cc1ccc(O)cc1)C(=O)N[C@@H](CC(N)=O)C(=O)N[C@@H](Cc1c[nH]c2ccccc12)C(=O)N[C@@H](CC(C)C)C(=O)N[C@H](C(=O)N[C@@H](CCCNC(=N)N)C(=O)N[C@@H](CCC(N)=O)C(=O)N[C@@H](CCCNC(=N)N)C(=O)N[C@@H](Cc1ccc(O)cc1)C(N)=O)[C@@H](C)O)C(C)C
B5: Compound 155 (peptide)
peptide: Isovaleryl-APEK([Ahx-γGlu-C18 diacid])PEEDATPEELQRYYVSLRHYYNWLSRQRY-NH2
SMILES: CC(C)CC(=O)N[C@@H](C)C(=O)N1CCC[C@H]1C(=O)N[C@@H](CCC(=O)O)C(=O)N[C@@H](CCCCNC(=O)CCCCCNC(=O)CC[C@H](NC(=O)CCCCCCCCCCCCCCCCC(=O)O)C(=O)O)C(=O)N1CCC[C@H]1C(=O)N[C@@H](CCC(=O)O)C(=O)N[C@@H](CCC(=O)O)C(=O)N[C@@H](CC(=O)O)C(=O)N[C@@H](C)C(=O)N[C@H](C(=O)N1CCC[C@H]1C(=O)N[C@@H](CCC(=O)O)C(=O)N[C@@H](CCC(=O)O)C(=O)N[C@@H](CC(C)C)C(=O)N[C@@H](CCC(N)=O)C(=O)N[C@@H](CCCNC(=N)N)C(=O)N[C@@H](Cc1ccc(O)cc1)C(=O)N[C@@H](Cc1ccc(O)cc1)C(=O)N[C@H](C(=O)N[C@@H](CO)C(=O)N[C@@H](CC(C)C)C(=O)N[C@@H](CCCNC(=N)N)C(=O)N[C@@H](Cc1c[nH]cn1)C(=O)N[C@@H](Cc1ccc(O)cc1)C(=O)N[C@@H](Cc1ccc(O)cc1)C(=O)N[C@@H](CC(N)=O)C(=O)N[C@@H](Cc1c[nH]c2ccccc12)C(=O)N[C@@H](CC(C)C)C(=O)N[C@@H](CO)C(=O)N[C@@H](CCCNC(=N)N)C(=O)N[C@@H](CCC(N)=O)C(=O)N[C@@H](CCCNC(=N)N)C(=O)N[C@@H](Cc1ccc(O)cc1)C(N)=O)C(C)C)[C@@H](C)O
B6: Compound 157 (peptide)
peptide: Isovaleryl-APAK([Ahx-γGlu-C18 diacid])PEEAASPEELQRYYVALRHYYNWLTRQRY-NH2
SMILES: CC(C)CC(=O)N[C@@H](C)C(=O)N1CCC[C@H]1C(=O)N[C@@H](C)C(=O)N[C@@H](CCCCNC(=O)CCCCCNC(=O)CC[C@H](NC(=O)CCCCCCCCCCCCCCCCC(=O)O)C(=O)O)C(=O)N1CCC[C@H]1C(=O)N[C@@H](CCC(=O)O)C(=O)N[C@@H](CCC(=O)O)C(=O)N[C@@H](C)C(=O)N[C@@H](C)C(=O)N[C@@H](CO)C(=O)N1CCC[C@H]1C(=O)N[C@@H](CCC(=O)O)C(=O)N[C@@H](CCC(=O)O)C(=O)N[C@@H](CC(C)C)C(=O)N[C@@H](CCC(N)=O)C(=O)N[C@@H](CCCNC(=N)N)C(=O)N[C@@H](Cc1ccc(O)cc1)C(=O)N[C@@H](Cc1ccc(O)cc1)C(=O)N[C@H](C(=O)N[C@@H](C)C(=O)N[C@@H](CC(C)C)C(=O)N[C@@H](CCCNC(=N)N)C(=O)N[C@@H](Cc1c[nH]cn1)C(=O)N[C@@H](Cc1ccc(O)cc1)C(=O)N[C@@H](Cc1ccc(O)cc1)C(=O)N[C@@H](CC(N)=O)C(=O)N[C@@H](Cc1c[nH]c2ccccc12)C(=O)N[C@@H](CC(C)C)C(=O)N[C@H](C(=O)N[C@@H](CCCNC(=N)N)C(=O)N[C@@H](CCC(N)=O)C(=O)N[C@@H](CCCNC(=N)N)C(=O)N[C@@H](Cc1ccc(O)cc1)C(N)=O)[C@@H](C)O)C(C)C

In the assay the target is T1, human NPY2 receptor. The experiment in a line: RLB: displacement of 125I-PYY(1-36) from hNPY2R membranes. For orientation: Displacement assays read how much labelled ligand stays bound in the presence of the test substance.
In turn, B1 displayed a Ki of 6.8 nM. That is a single-digit nanomolar value.

Take B2: the Ki stood at 3.71 nM. Against the preceding molecule, the Ki is about 1.8-fold lower.

Regarding B3, the affinity corresponds to a Ki of 4.2 nM.

On to B4, for which the Ki is 0.58 nM.

As for B5, the affinity corresponds to a Ki of 7.6 nM.

The molecule B6 yielded a Ki of 1.68 nM. Against the preceding molecule, the Ki is about 4.5-fold lower.
